Target: EGFRvIII (UniProt P00533)
Experiment: BLI
Details: inverted dT at the end, BLI: association 200 s, dissociation 400 s, PBS + 0.05% Tween-20 (stated for NOTA-aptamer dissociation), protein loading at room temperature, cells: DPBS …

TGAGTAAGTGAGTACCGTTTGCGATTTGGAGAACTACGCAATCA [EGFRvIII aptamer (44 nt)]
Kd (P = 2Nap-dU (5-[N-(2-naphthylmethyl)carboxamide]-2'-deoxyuridine), written as T at 5,9,13,18,19,20,25,26,27,35,42, T1 printed as T): 0.87 nM

TGAGTAAGTGAGTACCGTTTGCGATTTGGAGAACTACGCAATCA [NOTA-EGFRvIII aptamer]
Kd (protein on Ni-NTA probe, 125-500 nM aptamer, PBS 0.05% Tween-20, 2Nap-dU written as T at 5,9,13,18,19,20,25,26,27,35,42, 5'-amine conjugated to p-SCN-Bn-NOTA): 2.05 nM

Reference: PMC11207964
